Reference: patent US20230242657A1

Assays:
[1] = target: human OX40 on the cell surface (activated human T cells; Jurkat-OX40-NF-kB-Luc cells overexpressing human OX40) (human) (UniProt P43489); test: cell-based or functional assay
[2] = target: recombinant OX40-Fc protein (R & D, Cat 3388-OX) (human) (UniProt P43489); test: blocking ELISA: plate-coated OX40-Fc, serially diluted antibody, then OX40L at 50 ng/ml, bound OX40L detected
Sequence of recombinant OX40-Fc protein (R & D, Cat 3388-OX) (human) (P43489 29-214): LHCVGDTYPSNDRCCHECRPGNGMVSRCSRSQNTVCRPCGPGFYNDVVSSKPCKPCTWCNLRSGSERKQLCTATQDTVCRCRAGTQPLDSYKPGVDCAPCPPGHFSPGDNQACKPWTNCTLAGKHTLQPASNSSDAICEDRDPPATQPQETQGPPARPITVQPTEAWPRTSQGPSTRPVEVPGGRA

Sequence of human OX40 on the cell surface (activated human T cells; Jurkat-OX40-NF-kB-Luc cells overexpressing human OX40) (human) (P43489 29-277): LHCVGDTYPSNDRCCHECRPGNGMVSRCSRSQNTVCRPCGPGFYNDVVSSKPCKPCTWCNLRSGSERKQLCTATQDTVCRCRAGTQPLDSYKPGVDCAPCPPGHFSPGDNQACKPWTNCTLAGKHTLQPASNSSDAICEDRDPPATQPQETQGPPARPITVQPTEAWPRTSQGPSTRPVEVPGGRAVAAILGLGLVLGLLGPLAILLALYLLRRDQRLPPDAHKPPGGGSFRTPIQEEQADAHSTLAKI

IC50 of blocking the OX40L-mediated T cell activation (IFNy secretion) [1]: 1100 pM | IC50 [2]: 300 pM | maximum inhibition rate [2]: 50%
B1: GBR830 (reference OX40 antagonist antibody) (antibody, INN chains, looked up, V domains shown)
VH: QVTLKESGPALVKPTQTLTLTCSFSGFSLSTSGMGVGWIRQPPGKALEWIAHIWWDDDKYYNTALKTRLTISKDTSKNQVVLTMTNMDPVDTATYYCARIDWDGFAYWGQGTLVTVSS
VL: EIVLTQSPATLSLSPGERATLSCRASSSVSYMHWYQQKPGQAPRPWIYATSNRATGIPARFSGSGSGTDYTLTISSLEPEDFAVYYCQQWSSNPWTFGQGTKVEIK
